According to patent publication US20220153851A1 (Five Prime, published 2022):
Numbering of substitutions follows the chain as printed.

B1: h0311-L0H2 (antibody, human IgG4 S228P, kappa, V domains shown)
VH: QVQLVQSGAEVKKPGSSVKVSCKASGYIFTDYNMHWVRQAPGQGLEWMGEINPNNGVVVYNQKFKGTTTLTVDKSTSTAYMELSSLRSEDTAVYYCTRALYHSNFGWYFDSWGQGTLVTVSS
VL: EIVLTQSPATLSLSPGERATLSCKASQSVDYDGDSHMNWYQQKPGQAPRLLIYTASNLESGIPARFSGSGSGTDFTLTISSLEPEDFAVYYCQQGNEDPWTFGQGTKVEIKR
notes: also called Ab15; huAb 0311-L0H2
B2: h0302-L1H1 (antibody, human IgG4 S228P, kappa, V domains shown)
VH: QVQLVQSGAEVKKPGSSVKVSCKASGYTFSDFNIHWVRQAPGQGLEWMGYINPYTDVTVYNEKFKGRVTITSDKSTSTAYMELSSLRSEDTAVYYCASYFDGTFDYALDYWGQGTLVTVSS
VL: B1 VL with K24R, Q27E, Y31N, D32Y, D34L, H36F, G72R, G95S, N96K, D98L
notes: also called Ab8; huAb 0302-L1H1
B3: h0311-L1H1 (antibody, human IgG4 S228P, kappa, V domains shown)
VH: B1 VH with T67R, T68V, L70I
VL: B1 VL with E1D, T73A
notes: also called Ab14; huAb 0311-L1H1
B4: h0302-L2H2 (antibody, human IgG4 S228P, kappa, V domains shown)
VH: B2 VH with M48I, V68A, I70L
VL: EIVVTQSPATLSLSPGERATLSCRASESVDNYGLSFMNWFQQKPGQAPRLLIYTASNLESGIPARFSGSGSRTDFTLTISSLEPEDFAVYYCQQSKELPWTFGQGTKVEIKR
notes: also called Ab12; huAb 0302-L2H2
B5: h0302-L0H2 (antibody, human IgG4 S228P, kappa, V domains shown)
VH: B2 VH with M48I, V68A, I70L
VL: B4 VL with V4L, F40Y, R72G
notes: also called Ab10; huAb 0302-L0H2
B6: h0301-L0H1 (antibody, human IgG4 S228P, kappa)
heavy: not shown
light: EIVLTQSPATLSLSPGERATLSCKASQSVDYDGDNYMNWYQQKPGQAPRLLIYAASNLESGIPARFSGSGSGTDFTLTISSLEPEDFAVYYCHLSNEDLSTFGGGTKVEIKRTVAAPSVFIFPPSDEQLKSGTASVVCLLNNFYPREAKVQWKVDNALQSGNSQESVTEQDSKDSTYSLSSTLTLSKADYEKHKVYACEVTHQGLSSPVTKSFNRGEC
notes: also called Ab2; huAb 0301-L0H1
B7: h0301-L1H1 (antibody, human IgG4 S228P, kappa)
heavy: not shown
light: B6 light with E1N
notes: also called Ab5; huAb 0301-L1H1
B8: h0301-L0H2 (antibody, human IgG4 S228P, kappa)
heavy: not shown
light: B6 light
notes: also called Ab3; huAb 0301-L0H2
B9: h0301-L1H2 (antibody, human IgG4 S228P, kappa)
heavy: not shown
light: B6 light with E1N
notes: also called Ab6; huAb 0301-L1H2

The binders below were run against T1, hCSF1R ECD.506 (human, UniProt P07333 20-506) (assay: SPR Biacore T100, antibody captured on anti-human IgG, hCSF1R ECD.506 as analyte, 1:1 model).
T1 construct: also called human CSF1R ECD
Experimental: The kₐ, kd, and KD for binding to human CSF1R ECD was determined for each of the humanized antibodies as follows.
Binding kinetics of anti-CSF1R humanized antibodies to CSF1R ECD was determined using Biacore T100 Surface Plasmon Resonance (SPR) (GE Healthcare Life Sciences, Piscataway, N.Y.). Each of the humanized anti-CSF1R antibodies was captured on a CM5 sensor chip immobilized with anti-Human IgG antibody using the Human antibody capture kit (GE Healthcare Life Sciences, Piscataway, N.Y.) at 150 RU so that the Rmax value for hCSF1R ECD.506 (SEQ ID NO: 5) binding was 100 RU. Rmax values of less than 150 RU are recommended for accurately determining kinetic values. […] The association constant, dissociation constant, affinity, and binding capacity of each of the Fabs for human CSF1R ECD was calculated using the Biacore T100 Evaluation software package using the 1:1 binding model.

Kd	koff	kon	Binder
350 pM	0.000473 s⁻¹	1.34e+06 M⁻¹ s⁻¹	B1
1170 pM	0.00404 s⁻¹	3.47e+06 M⁻¹ s⁻¹	B2
500 pM	0.000664 s⁻¹	1.32e+06 M⁻¹ s⁻¹	B3
460 pM	0.00084 s⁻¹	1.84e+06 M⁻¹ s⁻¹	B4
530 pM	0.00179 s⁻¹	3.4e+06 M⁻¹ s⁻¹	B5
340 pM	0.00122 s⁻¹	3.56e+06 M⁻¹ s⁻¹	B6
320 pM	0.000921 s⁻¹	2.87e+06 M⁻¹ s⁻¹	B7
280 pM	0.00066 s⁻¹	2.32e+06 M⁻¹ s⁻¹	B8
250 pM	0.000742 s⁻¹	2.95e+06 M⁻¹ s⁻¹	B9

These binders were tested against human CSF1R on CSF1R (SEQ ID NO: 2)-transfected CHO cells (human, UniProt P07333 20-972) (assay: cell-based or functional assay).

IC50, inhibition of CSF1-induced CSF1R phosphorylation (head prints 'Human CSF1/Human CSF1R ECD IC50')	IC50, inhibition of IL34-induced CSF1R phosphorylation (head prints 'Human IL34/Human CSF1R ECD IC50')	Binder
0.435 µg/mL	0.633 µg/mL	B1
0.742 µg/mL	0.364 µg/mL	B2
0.508 µg/mL	0.667 µg/mL	B3
0.354 µg/mL	0.24 µg/mL	B4
0.438 µg/mL	0.474 µg/mL	B5
0.778 µg/mL	0.453 µg/mL	B6
0.814 µg/mL	0.384 µg/mL	B7
1.32 µg/mL	0.481 µg/mL	B8
0.682 µg/mL	0.397 µg/mL	B9

Each binder was assayed against T2, cynoCSF1R ECD-Fc (cynomolgus) (assay: ELISA, plate coated with cynoCSF1R ECD-Fc).
T2 construct: also called cynomolgus CSF1R ECD
Experimental: (§1) Ninety-six well clear-bottom ELISA plates were coated overnight with 1 μg/ml recombinant hCSF1R ECD.506-Fc (SEQ ID NO: 6; FivePrime Therapeutics) or Human M-CSF R Fc Chimera (R&D Systems) in PBS. The next morning, wells were washed four times with 0.05% Tween20 in PBS (PBST) and blocked with Blocker-Blotto (Pierce). Fifty μl of 0.5× serial dilutions of the humanized antibody or parental chimeric antibody, beginning with 2000 ng/ml, diluted 1:1 in Blocker-Blotto were added to the CSF1R-coated wells. After incubation at room temperature (RT) for 90 min, wells were washed four times with PBST, and a 1:5000 dilution of a peroxidase-conjugated Goat anti-Human kappa Light chain antibody (Sigma) in Blocker-Blotto was added to each well. After incubation at RT for 60 min, wells were washed four times with PBST, and 50 μl o-phenylenediamine dihydrochloride peroxidase substrate (Sigma) was added to each well. After incubation at RT for 30 min, A450 values of each well were read directly on a SpectraMaxPlus spectrophotometer with SoftMaxPro software (Molecular Devices).
The binding curve for each humanized antibody binding to cynomolgus CSF1R ECD was determined as described above for human CSF1R, except the wells of the clear-bottom ELISA plates were coated overnight with 2 μg/ml recombinant cynoCSF1R ECD-Fc (FivePrime Therapeutics, SEQ ID NO: 8, but without the 19 amino acid leader sequence).

EC50	Binder
0.0175 µg/mL	B1
1.06 µg/mL	B2
0.0309 µg/mL	B3
0.018 µg/mL	B4
0.155 µg/mL	B5
0.0144 µg/mL	B6
0.0167 µg/mL	B7
0.0138 µg/mL	B8
0.0166 µg/mL	B9

These binders were tested against T2, cynoCSF1R ECD-Fc (assay: competition ELISA, blocking of human CSF1 binding to cynoCSF1R ECD-Fc).
Experimental: The humanized antibodies, along with the parental chimeric antibodies (cAbs), were tested for their ability to block human CSF1 binding to human and cynomolgus CSF1R ECD, as follows.
Recombinant Human CSF1 (M-CSF; R&D Systems) was biotinylated using an NH₂-Biotin Labeling Kit (Dojindo Molecular Technologies). One hundred μl of 1 μg/ml biotinylated CSF1 in PBST/0.1% BSA was added to the wells of Reacti-Bind Streptavidin coated plates (Pierce) pre-blocked with SuperBlock blocking buffer (Pierce) according to the manufacturer's instructions. Fifty μl of 0.5× serial dilutions of the humanized antibody or parental chimeric antibody, beginning with 2000 ng/ml, was incubated with 50 ng/ml hCSF1R ECD.506-Fc (SEQ ID NO: 6; FivePrime Therapeutics) or 50 ng/ml cynoCSF1R ECD-Fc (FivePrime Therapeutics, SEQ ID NO: 8, but without the 19 amino acid leader sequence) in 100 μl PBST/0.1% BSA for 90 min at RT, after which the admix was transferred to one or more wells of a ligand-coated plate. After 90 min at RT, wells were washed with PBST, and a 1:5000 dilution of an Fc-fragment-specific peroxidase-conjugated goat anti-human IgG (Jackson Immuno Research) in PBST/0.1% BSA was added to each well. After incubation at RT for 60 min, wells were washed with PBST/0.1% BSA, and o-phenylenediamine dihydrochloride peroxidase substrate (Sigma) was added to each well. After incubation at RT for 30 min, A450 values of each well were read directly on a SpectraMaxPlus spectrophotometer with SoftMaxPro software (Molecular Devices).

IC50	Binder
0.026 µg/mL	B1
0.0605 µg/mL	B2
0.0247 µg/mL	B3
0.838 µg/mL	B4
0.0274 µg/mL	B6
0.0311 µg/mL	B7
0.028 µg/mL	B8
0.0278 µg/mL	B9

These binders were tested against T3, hCSF1R ECD.506-Fc (human) (assay: ELISA, plate coated with human CSF1R ECD-Fc).
T3 construct: also called human CSF1R ECD-Fc fusion protein; human CSF1R ECD
Experimental: as §1

EC50	Binder
0.0115 µg/mL	B1
0.0214 µg/mL	B2
0.0143 µg/mL	B3
0.0101 µg/mL	B4
0.0179 µg/mL	B5
0.0142 µg/mL	B6
0.0165 µg/mL	B7
0.0148 µg/mL	B8
0.0162 µg/mL	B9

Each binder was assayed against T2, cynoCSF1R ECD-Fc (assay: competition ELISA, blocking of human IL34 binding to cynoCSF1R ECD-Fc).

IC50	Binder
0.0408 µg/mL	B1
0.676 µg/mL	B2
0.0537 µg/mL	B3
0.279 µg/mL	B4
0.248 µg/mL	B5
0.0364 µg/mL	B6
0.0424 µg/mL	B7
0.0374 µg/mL	B8
0.0365 µg/mL	B9

These binders were tested against T4, mCSF1R ECD-Fc (mouse) (assay: ELISA, plate coated with mCSF1R ECD-Fc, detection anti-human kappa-HRP, A450).
T4 construct: also called mouse CSF1R ECD
Experimental: as §1
The binding curve for each humanized antibody binding to mouse CSF1R ECD was determined as described above for human CSF1R, except the wells of the clear-bottom ELISA plates were coated overnight with 2 μg/ml recombinant mCSF1R ECD-Fc (FivePrime Therapeutics, SEQ ID NO: 93).

binding result	Binder
no binding (tested: 2000 ng/ml)	B1
no binding (tested: 2000 ng/ml)	B2
no binding (tested: 2000 ng/ml)	B3
no binding (tested: 2000 ng/ml)	B4
no binding (tested: 2000 ng/ml)	B5
no binding (tested: 2000 ng/ml)	B6
no binding (tested: 2000 ng/ml)	B7
no binding (tested: 2000 ng/ml)	B8
no binding (tested: 2000 ng/ml)	B9
